The values below come from paper doi:10.1101/2021.10.11.463904 (bioRxiv, 2021).

Like-named read-outs stand apart in the source and are kept apart here. Ends that are not written are not given here. * marks the point of attachment. FITC = O=C1OC2(c3ccc(O)cc3Oc3cc(O)ccc32)c2ccc(NC(=S)*)cc21; Ahx = NCCCCCC(=O)O

The target of data set [1] is FITC-Mature-1cys (Mus musculus) (UniProt P09535). Nature of the data set: fluorescence polarisation. A general note: Polarisation of emitted light reports the rotation of a fluorescent probe.
Sequence of FITC-Mature-1cys (Mus musculus) (P09535 25-91): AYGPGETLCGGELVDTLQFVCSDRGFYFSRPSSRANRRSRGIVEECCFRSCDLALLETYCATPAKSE
Data set [2] has the same target. Description: fluorescence polarisation. This is another data set of the same source.
For data set [3], the target named is T1, BiP (UniProt P20029 20-655). Nature of the data set: fluorescence polarisation.
T1 sequence (P20029 20-655): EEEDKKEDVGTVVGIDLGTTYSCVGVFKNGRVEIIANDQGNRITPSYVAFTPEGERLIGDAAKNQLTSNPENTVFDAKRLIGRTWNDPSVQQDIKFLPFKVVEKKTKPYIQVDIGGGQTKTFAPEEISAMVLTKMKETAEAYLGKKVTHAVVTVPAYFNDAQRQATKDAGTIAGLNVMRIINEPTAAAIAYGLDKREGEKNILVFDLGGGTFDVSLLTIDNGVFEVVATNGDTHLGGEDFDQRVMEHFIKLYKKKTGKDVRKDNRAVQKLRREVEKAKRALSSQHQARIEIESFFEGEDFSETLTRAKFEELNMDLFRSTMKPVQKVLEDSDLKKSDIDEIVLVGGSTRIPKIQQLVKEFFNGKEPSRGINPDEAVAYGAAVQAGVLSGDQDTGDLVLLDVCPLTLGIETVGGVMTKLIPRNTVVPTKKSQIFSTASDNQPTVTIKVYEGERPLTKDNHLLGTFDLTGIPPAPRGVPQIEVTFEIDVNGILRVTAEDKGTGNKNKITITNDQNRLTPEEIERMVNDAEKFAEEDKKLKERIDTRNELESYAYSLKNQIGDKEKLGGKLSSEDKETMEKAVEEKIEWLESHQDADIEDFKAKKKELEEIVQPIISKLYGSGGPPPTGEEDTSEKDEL
Data set [4] concerns the target T1, BiP. Nature of the data set: fluorescence polarisation. This is another data set of the same source.
The target of the next data set is BSA (bovine (from the name BSA), UniProt P02769 25-607). Description: fluorescence polarisation.
Sequence of BSA (P02769 25-607): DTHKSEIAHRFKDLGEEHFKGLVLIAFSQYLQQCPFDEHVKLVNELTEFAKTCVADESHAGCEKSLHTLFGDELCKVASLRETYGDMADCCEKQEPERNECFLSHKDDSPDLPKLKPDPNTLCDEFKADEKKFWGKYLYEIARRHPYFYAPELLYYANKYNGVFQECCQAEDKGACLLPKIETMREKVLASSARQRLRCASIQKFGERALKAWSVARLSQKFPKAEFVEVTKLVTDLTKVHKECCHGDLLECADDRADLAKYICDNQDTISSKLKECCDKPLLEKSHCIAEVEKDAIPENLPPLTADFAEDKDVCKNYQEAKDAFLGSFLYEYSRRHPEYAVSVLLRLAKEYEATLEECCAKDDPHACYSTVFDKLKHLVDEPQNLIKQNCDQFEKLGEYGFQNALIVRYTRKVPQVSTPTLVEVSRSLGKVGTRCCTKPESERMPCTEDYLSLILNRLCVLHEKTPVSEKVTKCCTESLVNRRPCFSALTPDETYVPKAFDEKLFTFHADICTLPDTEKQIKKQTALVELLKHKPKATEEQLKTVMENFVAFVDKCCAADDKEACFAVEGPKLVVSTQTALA
Data set [5] has as its target T1, BiP. Nature of the data set: fluorescence polarisation. The source holds these as a separate data set.
The data set “dynamic light scattering” concerns the molecule itself. Description: dynamic light scattering.

The term Kd denotes the constant that tells how readily two partners part at equilibrium. Turning to “BiP (from UniProt P20029 20-655) (natural protein)”, the Kd in data set [1] amounted to 9.7 µM; in data set [2], 2700 nM.
{FITC-Ahx}-QSAGRLRRGLPALLRARRG [FITC-E-peptide 121-139]: binding with BiP [3] was put at a Kd of 5300 ± 600 nM.
Consider RDVC(FITC‑maleimide)TSQAVLPDDFPRYPVGKFFQYDTWR (domain or fragment) [FITC-E-peptide 92-120], for which the values for the Kd with BiP [4] and with BiP [3] were 8 ± 3.8 µM and 670 ± 170 nM, respectively.
As to {FITC-Ahx}-DDFPRYPVGKFFQYDTWR [FITC-E-peptide 103-120], the Kd is 13 ± 2 µM with BSA, 13 ± 2 µM with BiP [4], 950 ± 170 nM with BiP [3] and 460 ± 50 nM with BiP [5].
RDVC(FITC‑maleimide)TSQAVLPDDFPRYPVGKFFQYDTWRQSAGRLRRGLPALLRARRG (domain or fragment) [FITC-E-peptide 92-139]: the Kd is 1.9 ± 0.6 µM with BiP [4] and 520 ± 130 nM with BiP [3].
In the data set with BiP [3], {FITC-Ahx}-EAKRHRPLIVLPPKDPAHG [FITC-E-peptide 151-169] registered an equilibrium dissociation constant (Kd) of 15000 ± 1000 nM.

B1: E-peptide (domain or fragment)
chain: RDVCTSQAVLPDDFPRYPVGKFFQYDTWRQSAGRLRRGLPALLRARRGRMLAKELKEFREAKRHRPLIVLPPKDPAHGGASSEMSSNHQ
On to B1, for which the binding result in “dynamic light scattering” was “binds”.
